From patent US20200318071A1

Biological target: human CD33 (full length, CD33M) (human) (UniProt P20138)
Assay: cell-based or functional assay

Sequence of UniProt P20138 (P20138 18-364 limits assumed): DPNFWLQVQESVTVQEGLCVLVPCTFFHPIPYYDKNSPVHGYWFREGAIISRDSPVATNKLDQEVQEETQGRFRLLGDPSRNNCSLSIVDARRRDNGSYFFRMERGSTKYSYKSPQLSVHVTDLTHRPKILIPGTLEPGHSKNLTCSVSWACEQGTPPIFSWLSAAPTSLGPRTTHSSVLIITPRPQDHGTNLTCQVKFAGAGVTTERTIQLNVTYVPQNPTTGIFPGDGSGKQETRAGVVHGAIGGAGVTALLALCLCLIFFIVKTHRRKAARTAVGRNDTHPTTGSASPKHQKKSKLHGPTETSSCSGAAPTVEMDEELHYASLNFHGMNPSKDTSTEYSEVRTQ

## gemtuzumab ozogamicin (antibody)
  IC50 of GO cytotoxicity, HL-60 cells (viable cell number, Celltiter Glo, 72 hours): 0.0355 µg/mL
  IC50 of GO cytotoxicity, THP-1 cells (viable cell number, Celltiter Glo, 72 hours): 0.0163 µg/mL
